Sequences and labels used below:
B1: ATXN2 peptide 913-928 (Ataxin-2), 16-mer library wild type / PABPC1 PABC (PABPC1 PABC domain, residues 544-623) (parent complex)
chain 1: TLNPNAKEFNPRSFSQ
chain 2: PLTASMLASAPPQEQKQMLGERLFPLIQAMHPTLAGKITGMLLEIDNSELLHMLESPESLRSKVDEAVAVLQAHQAKEAA

This test covers variants of B1. Put plainly: proteomic peptide phage display deep mutational scan (ProP-PD DMS): M13 P8 16-mer library selected against immobilised GST-tagged bait for four days (rounds), NGS of the eluted pools per day and pseudo-replica; bait immobilised on MaxiSorp plates (10 µg), library pre-cleared on GST, 2 h binding at 4 °C, five washes; one round per day, days 1-4; value from days 2 and 3.
Consider chain 1 P4I, for which the screen value is 0.00226 average fractional NGS count over selection days 2 and 3 (reads of this peptide / all reads for the bait, averaged over ….

For the variant chain 1 P4L, the screen value is 0.000532 average fractional NGS count over selection days 2 and 3 (reads of this peptide / all reads for the bait, averaged over …. In the case of chain 1 K7A, the screen value is 0.0221 average fractional NGS count over selection days 2 and 3 (reads of this peptide / all reads for the bait, averaged over ….

In the case of chain 1 K7Q, the screen value was 0.000831 average fractional NGS count over selection days 2 and 3 (reads of this peptide / all reads for the bait, averaged over …. Under chain 1 K7H stands 0.0027 average fractional NGS count over selection days 2 and 3 (reads of this peptide / all reads for the bait, averaged over …; under chain 1 K7D, 0.00119 average fractional NGS count over selection days 2 and 3 (reads of this peptide / all reads for the bait, averaged over …; under chain 1 K7T, 0.000636 average fractional NGS count over selection days 2 and 3 (reads of this peptide / all reads for the bait, averaged over …. Under chain 1 K7F stands 0.00539 average fractional NGS count over selection days 2 and 3 (reads of this peptide / all reads for the bait, averaged over …; under chain 1 K7P, 0.000615 average fractional NGS count over selection days 2 and 3 (reads of this peptide / all reads for the bait, averaged over …; under chain 1 K7I, 0.000344 average fractional NGS count over selection days 2 and 3 (reads of this peptide / all reads for the bait, averaged over …. Consider chain 1 K7V, for which the screen value is 0.000726 average fractional NGS count over selection days 2 and 3 (reads of this peptide / all reads for the bait, averaged over …. Under chain 1 K7S stands 0.00126 average fractional NGS count over selection days 2 and 3 (reads of this peptide / all reads for the bait, averaged over …; under chain 1 R12N, 0.00143 average fractional NGS count over selection days 2 and 3 (reads of this peptide / all reads for the bait, averaged over …; under chain 1 R12H, 0.00563 average fractional NGS count over selection days 2 and 3 (reads of this peptide / all reads for the bait, averaged over ….

For chain 1 R12L, the screen value was 0.000524 average fractional NGS count over selection days 2 and 3 (reads of this peptide / all reads for the bait, averaged over …. For the variant chain 1 R12M, the screen value is 0.00123 average fractional NGS count over selection days 2 and 3 (reads of this peptide / all reads for the bait, averaged over …. For chain 1 R12K the value was 0.000537 average fractional NGS count over selection days 2 and 3 (reads of this peptide / all reads for the bait, averaged over …; for chain 1 R12Q, 0.000478 average fractional NGS count over selection days 2 and 3 (reads of this peptide / all reads for the bait, averaged over …; for chain 1 R12Y, 0.00157 average fractional NGS count over selection days 2 and 3 (reads of this peptide / all reads for the bait, averaged over ….

On to chain 1 E8A, for which the screen value was 0.000246 average fractional NGS count over selection days 2 and 3 (reads of this peptide / all reads for the bait, averaged over …. Consider chain 1 E8N, for which the screen value is 0.00138 average fractional NGS count over selection days 2 and 3 (reads of this peptide / all reads for the bait, averaged over …. Under chain 1 S15G stands 0.00895 average fractional NGS count over selection days 2 and 3 (reads of this peptide / all reads for the bait, averaged over ….

For chain 1 S15M, the screen value is 0.00397 average fractional NGS count over selection days 2 and 3 (reads of this peptide / all reads for the bait, averaged over …. Under chain 1 S15H stands 0.000448 average fractional NGS count over selection days 2 and 3 (reads of this peptide / all reads for the bait, averaged over …; under chain 1 S15I, 0.000409 average fractional NGS count over selection days 2 and 3 (reads of this peptide / all reads for the bait, averaged over …. For chain 1 S15P the value was 0.012 average fractional NGS count over selection days 2 and 3 (reads of this peptide / all reads for the bait, averaged over …; for chain 1 S15W, 0.00221 average fractional NGS count over selection days 2 and 3 (reads of this peptide / all reads for the bait, averaged over …; for chain 1 S15F, 0.000374 average fractional NGS count over selection days 2 and 3 (reads of this peptide / all reads for the bait, averaged over ….

Turning to chain 1 S15V, the screen value is 0.000359 average fractional NGS count over selection days 2 and 3 (reads of this peptide / all reads for the bait, averaged over …. For chain 1 S15E the value was 0.00372 average fractional NGS count over selection days 2 and 3 (reads of this peptide / all reads for the bait, averaged over …. Under chain 1 A6T stands 0.000787 average fractional NGS count over selection days 2 and 3 (reads of this peptide / all reads for the bait, averaged over …; under chain 1 A6V, 0.00065 average fractional NGS count over selection days 2 and 3 (reads of this peptide / all reads for the bait, averaged over …. chain 1 N5Q: the screen value was 0.00052 average fractional NGS count over selection days 2 and 3 (reads of this peptide / all reads for the bait, averaged over ….

In the case of chain 1 N5I, the screen value is 0.00126 average fractional NGS count over selection days 2 and 3 (reads of this peptide / all reads for the bait, averaged over …. For chain 1 N5V the value was 0.0117 average fractional NGS count over selection days 2 and 3 (reads of this peptide / all reads for the bait, averaged over …; for chain 1 N5H, 0.00507 average fractional NGS count over selection days 2 and 3 (reads of this peptide / all reads for the bait, averaged over …; for chain 1 N5L, 0.00771 average fractional NGS count over selection days 2 and 3 (reads of this peptide / all reads for the bait, averaged over …. With chain 1 N5G, the screen value was 0.00173 average fractional NGS count over selection days 2 and 3 (reads of this peptide / all reads for the bait, averaged over …. Under chain 1 N5M stands 0.0888 average fractional NGS count over selection days 2 and 3 (reads of this peptide / all reads for the bait, averaged over …; under chain 1 N5T, 0.00242 average fractional NGS count over selection days 2 and 3 (reads of this peptide / all reads for the bait, averaged over …; under chain 1 N5F, 0.000799 average fractional NGS count over selection days 2 and 3 (reads of this peptide / all reads for the bait, averaged over …. Take chain 1 N5K: the screen value was 0.00157 average fractional NGS count over selection days 2 and 3 (reads of this peptide / all reads for the bait, averaged over …. Consider chain 1 N10P, for which the screen value was 0.000829 average fractional NGS count over selection days 2 and 3 (reads of this peptide / all reads for the bait, averaged over …. On to chain 1 N10A, for which the screen value was 0.000525 average fractional NGS count over selection days 2 and 3 (reads of this peptide / all reads for the bait, averaged over …. chain 1 N10W: the screen value is 0.000811 average fractional NGS count over selection days 2 and 3 (reads of this peptide / all reads for the bait, averaged over …. Under chain 1 N10D stands 0.0012 average fractional NGS count over selection days 2 and 3 (reads of this peptide / all reads for the bait, averaged over …. Under chain 1 N10L stands 0.00266 average fractional NGS count over selection days 2 and 3 (reads of this peptide / all reads for the bait, averaged over …; under chain 1 N10H, 0.000309 average fractional NGS count over selection days 2 and 3 (reads of this peptide / all reads for the bait, averaged over …; under chain 1 N10R, 0.000511 average fractional NGS count over selection days 2 and 3 (reads of this peptide / all reads for the bait, averaged over …. As to chain 1 T1K, the screen value was 0.00118 average fractional NGS count over selection days 2 and 3 (reads of this peptide / all reads for the bait, averaged over ….

For chain 1 T1G, the screen value is 0.00313 average fractional NGS count over selection days 2 and 3 (reads of this peptide / all reads for the bait, averaged over …. As for chain 1 T1M, the screen value was 0.000194 average fractional NGS count over selection days 2 and 3 (reads of this peptide / all reads for the bait, averaged over ….

Turning to chain 1 T1L, the screen value was 0.0036 average fractional NGS count over selection days 2 and 3 (reads of this peptide / all reads for the bait, averaged over …. For chain 1 T1Y the value was 0.0102 average fractional NGS count over selection days 2 and 3 (reads of this peptide / all reads for the bait, averaged over …; for chain 1 T1H, 0.000542 average fractional NGS count over selection days 2 and 3 (reads of this peptide / all reads for the bait, averaged over ….

As for chain 1 T1A, the screen value is 0.00105 average fractional NGS count over selection days 2 and 3 (reads of this peptide / all reads for the bait, averaged over ….

Consider chain 1 T1V, for which the screen value was 0.000977 average fractional NGS count over selection days 2 and 3 (reads of this peptide / all reads for the bait, averaged over …. For the variant chain 1 F9W, the screen value was 0.00363 average fractional NGS count over selection days 2 and 3 (reads of this peptide / all reads for the bait, averaged over …. For chain 1 S13T the value was 0.00197 average fractional NGS count over selection days 2 and 3 (reads of this peptide / all reads for the bait, averaged over …. Under chain 1 S13A stands 0.00421 average fractional NGS count over selection days 2 and 3 (reads of this peptide / all reads for the bait, averaged over …; under chain 1 S13P, 0.0016 average fractional NGS count over selection days 2 and 3 (reads of this peptide / all reads for the bait, averaged over …. For chain 1 S13Y the value was 0.00087 average fractional NGS count over selection days 2 and 3 (reads of this peptide / all reads for the bait, averaged over …; for chain 1 S13W, 0.000472 average fractional NGS count over selection days 2 and 3 (reads of this peptide / all reads for the bait, averaged over …; for chain 1 S13L, 0.0013 average fractional NGS count over selection days 2 and 3 (reads of this peptide / all reads for the bait, averaged over ….

For chain 1 P11Q, the screen value is 0.000241 average fractional NGS count over selection days 2 and 3 (reads of this peptide / all reads for the bait, averaged over ….

With chain 1 P11M, the screen value was 0.000174 average fractional NGS count over selection days 2 and 3 (reads of this peptide / all reads for the bait, averaged over ….

Regarding chain 1 P11N, the screen value is 0.000672 average fractional NGS count over selection days 2 and 3 (reads of this peptide / all reads for the bait, averaged over ….

In the case of chain 1 P11Y, the screen value is 0.000724 average fractional NGS count over selection days 2 and 3 (reads of this peptide / all reads for the bait, averaged over …. For chain 1 P11S, the screen value was 0.000475 average fractional NGS count over selection days 2 and 3 (reads of this peptide / all reads for the bait, averaged over …. For chain 1 P11L the value was 0.000381 average fractional NGS count over selection days 2 and 3 (reads of this peptide / all reads for the bait, averaged over …. chain 1 P11G: the screen value is 0.000676 average fractional NGS count over selection days 2 and 3 (reads of this peptide / all reads for the bait, averaged over …. Regarding chain 1 P11F, the screen value was 0.00198 average fractional NGS count over selection days 2 and 3 (reads of this peptide / all reads for the bait, averaged over ….

As for chain 1 P11W, the screen value was 0.000361 average fractional NGS count over selection days 2 and 3 (reads of this peptide / all reads for the bait, averaged over …. Take chain 1 P11H: the screen value was 0.00248 average fractional NGS count over selection days 2 and 3 (reads of this peptide / all reads for the bait, averaged over …. Under chain 1 P11D stands 8.69e-05 average fractional NGS count over selection days 2 and 3 (reads of this peptide / all reads for the bait, averaged over ….
